Biological target: T1, Caveolin-1 1-178 (UniProt Q03135)
T1 chain: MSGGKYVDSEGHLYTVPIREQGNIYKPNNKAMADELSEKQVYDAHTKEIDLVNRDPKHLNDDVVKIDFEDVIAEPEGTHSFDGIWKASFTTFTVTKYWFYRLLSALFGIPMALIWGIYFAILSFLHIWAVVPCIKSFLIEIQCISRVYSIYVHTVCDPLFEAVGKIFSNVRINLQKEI
Assay: given as Ka

B1: PrP (protein)
chain: not shown
- Kd: ~1.18 nM
